One test concerns the target T1, BIN1 SH3 domain (Homo sapiens, UniProt O00499).
T1 construct: His (N); made in house; host or cells: E. coli BL21 (DE3)
T1 sequence (O00499 520-593 limits assumed): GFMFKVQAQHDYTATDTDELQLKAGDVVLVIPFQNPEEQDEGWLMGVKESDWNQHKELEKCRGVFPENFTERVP
Description: SPR equilibrium affinity of peptides for biotinylated BIN1-SH3 domain. The following applies: for Kd: SPR Biacore S200, Biotin CAPture chip, Avi-BIN1-SH3 immobilised as ligand, peptide as analyte, reference cell CTX-M-14 subtracted, 25 °C, PBS-P+, steady-state 1:1 fit, mean ± SD of three technical replicates, p140Cap peptides tested 0.6–75 μM; for binding to BIN1-SH3 in words: SPR, tested analyte concentrations 0.6–75 μM. The format is binding. How it is done: We undertook a candidate approach to identify biologically relevant neuronal proteins that interact with BIN1’s SH3 domain (Fig. 1A). First, we referenced published KD calculations for several BIN1 SH3 domain ligands ([45]), setting a KD cut-off at <10 μM for our study. Then, we obtained a published index of potential protein interactors from a study that computationally predicted the top 100 peptide binding partners for each of 70 human SH3 domains, generated by SH3PepInt, an alignment-free, graph kernel-based tool ([46]). We curated the predicted BIN1 SH3-binding proteins using a set of criteria to ensure: 1) neuronal expression, 2) subcellular localization at the synapse, and 3) molecular functions relevant to neuronal BIN1 in neurotransmitter vesicle dynamics ([25]). We then utilized available protein structures in the Protein Data Bank or those predicted by AlphaFold to confirm the accessibility of each putative SH3-binding site within the full-length protein, prioritizing peptides known to adopt the left-handed polyproline-II helix. From these analyses, we nominated 10 proteins for an initial screening using 14-mer peptides in surface plasmon resonance (SPR) analysis (Fig. 1B). The purified Avi-tagged BIN1 SH3 domain was immobilized as the ligand on flow cell 2, while a nonbinding control protein was immobilized on flow cell 1 (Fig. S1). Subsequently, each peptide was injected in solution over the sensor surface as the analyte (Fig. 1B). To correct for nonspecific binding, response units from flow cell 1 were subtracted from those of flow cell 2 to determine the KD.
The ^1033KPSKSPPPPPPRRS^1046 p140Cap peptide harbors three canonical PRMs: class I, ^1036KSPPPPP^1042; class IIa, ^1038PPPPPRR^1045; and class IIb, ^1037PPPPPPR^1044 (Fig. 2A). […] Thus, we used SPR in combination with alanine-scanning mutagenesis to determine which of the three class motifs on p140Cap mediates binding to BIN1’s SH3 domain. We synthesized 14-mer peptides with alanine substitutions at either the basic residues alone or in combination with the corresponding prolines for all three canonical PRM classes. We also synthesized 7-mer peptides containing the native core motif for cross-referencing (Fig. 2B). […] We reasoned that alanine substitution of residues not involved in BIN1-SH3 binding would produce similar, if not identical, KDs to the native 14-mer peptide. […] Thus, we would be able to identify the precise motif responsible for facilitating the BIN1–p140Cap interaction.
All experiments were conducted using the Biacore S200 (GE Healthcare), equipped with a series S Biotin Capture chip (Cytiva Life Sciences) at 25 °C in 1X PBS-P + [0.2 M phosphate buffer with 27 mM KCl, 1.37 M NaCl, and 0.5% surfactant P20 (Tween 20)] running buffer. The chip surface was first conditioned with three 1-min injections of regeneration solution (3:1 8 M guanidine-HCl: 1 M NaOH) immediately after docking. Biotin CAPture reagent (50 μg/ml in HBS-EP buffer [0.01 M Hepes (pH 7.4), 0.15 M NaCl, 3 mM EDTA, 0.005% surfactant P20]), 3.4 ml) was immobilized on the chip surface at a flow rate of 2 μl/min for 5 min prior to ligand immobilization. Affinity run assays were conducted by immobilizing 50 μg/ml Avi-BSH3 (12 kDa, >90% pure based on SDS-PAGE) diluted in 1X PBS-P+ running buffer at 5 ul/min for 60 s on a streptavidin-coated matrix on flow cell 2. Additionally, 50 μg/ml Avi-tagged nonbinding protein (CTX-M-14 β-lactamase, 30 kDa, >90% pure based on SDS-PAGE) diluted in 1X PBS-P+ running buffer was immobilized at 5 μl/min for 60 s on flow cell 1 to serve as a reference surface for subtraction of bulk refractive index background. To collect affinity data, the analytes were diluted in running buffer and injected over the two flow cells in serial dilution at a flow rate of 30 μl/min. The complexes were allowed to associate and dissociate for 30 s and 300 s, respectively. The surfaces were then regenerated with three 60 s injections of regeneration solution. […]

Test [1] deals with GST-tagged BIN1-SH3 domain MutK (K30R, rs138047593) (human). Description: pull-down; 25 μg GST or GST-BSH3 (WT or mutant) on glutathione-Sepharose with 0.5 mg of 1% Triton X-100 soluble mouse brain homogenate, 2 h at room temperature; washes with 50 mM KCl, 150 mM NaCl, 1.5% IGEPAL; immunoblot for p140Cap and total tau.
In test [2] the target is Avi-tagged BIN1 SH3 domain (human) (UniProt O00499). Description: SPR; Biacore S200, Biotin CAPture chip; biotinylated Avi-BIN1-SH3 captured on flow cell 2, Avi-tagged CTX-M-14 β-lactamase on reference flow cell 1; peptides injected as analytes at 30 μl/min; 25 °C, 1X PBS-P+; steady-state analysis, 1:1 model. (In general: In SPR one partner is held on a chip, and binding of the other changes the refractive index at the surface.)

The target of test [3] is T2, Avi-tagged BIN1 SH3 domain (human, UniProt O00499 520-593, biotin within the 15 amino acid AviTag peptide (enzymatic, in E. coli)).
T2 construct: human BIN1 (bridging integrator 1), the C-terminal 81 amino acids that encompass the SH3 domain; 12 kDa by the methods; vector pAviBir, insert between BamHI and NotI; also called Avi-BSH3; AviBir-Bin1 SH3; source: E. coli BL21 (DE3), purified (HisTrap HP, Sephacryl S-200 gel filtration); not shown: AviTag, N-terminal, kept
T2 sequence (looked up): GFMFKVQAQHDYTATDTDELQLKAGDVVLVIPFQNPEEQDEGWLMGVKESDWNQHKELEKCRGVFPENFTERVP
The test is described as above. The following applies: both partners purified.

In test [4] the target is T3, Avi-tagged BIN1 SH3 domain (human, UniProt O00499 520-593, biotin within the 15 amino acid AviTag peptide (enzymatic, in E. coli)).
T3 chain: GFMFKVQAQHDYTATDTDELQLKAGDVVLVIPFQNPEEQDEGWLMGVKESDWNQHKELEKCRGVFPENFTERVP
The test can be described thus: SPR.

As for Ac-ERSLVGFGPPVPAK-NH2 [p140Cap583-596], the Kd at BIN1 SH3 domain was greater than 75 µM. Still for that read-out and setting: with Ac-KPSKSPAPPAPARS-NH2 [KPSKSPAPPAPARS] the figure was greater than 75 µM. Same read-out and setting: the result for Ac-GYGFRLPPSSPQKL-NH2 [p140Cap498-512] reads greater than 75 µM. In the case of “tau from mouse brain (from UniProt P10637-2 1-430) (natural protein)”, in test [1], the fold less bound than to WT BIN1-SH3 stood at 2 fold. For the molecule “Ac-PPPPPPR-NH2 (N-terminus and C-terminus assumed) [PPPPPPR]”, the “binding to BIN1-SH3 in words” value at BIN1 SH3 domain is reported as “outside the range of tested analyte concentrations”. For “Ac-KSPPPPP-NH2 (N-terminus and C-terminus assumed) [KSPPPPP]”, the “binding to BIN1-SH3 in words” value on BIN1 SH3 domain is “no binding within the range of tested analyte concentrations”. Turning to “p140Cap 14-mer peptide 1033-1046 with alanine substitution of the class I lysine and its corresponding prolines (from UniProt Q9C0H9 1033-1046)”, the Kd in test [2] is 21 µM. Take Ac-KPSKSPPAPPARAS-NH2 [KPSKSPPAPPARAS]: the Kd at BIN1 SH3 domain was greater than 75 µM. “p140Cap 14-mer peptide 1033-1046 with alanine substitution of the class I lysine (from UniProt Q9C0H9 1033-1046)”: the Kd in test [2] stood at 6.32 µM. Same read-out and setting: with “p140Cap 14-mer peptide 1033-1046 with alanine substitution of the C-terminal arginine (class IIa) (from UniProt Q9C0H9 1033-1046)” the figure was 26.3 µM.

B1: p140Cap 14-mer peptide 1033-1046 with alanine substitution of the class IIa arginine and its corresponding prolines (peptide)
chain: Ac-KPSKSPPAPPARAS-NH2
Take B1: the Kd in test [3] was greater than 75 µM.

B2: p140Cap native class IIa 7-mer peptide (peptide)
peptide: PPPPPRR
notes: human p140Cap, class IIa PRM of the C-terminal proline-rich domain; source: synthetic peptide
For B2, the Kd in test [3] was found to be 31.7 µM.

B3: p140Cap native class I 7-mer peptide (peptide)
peptide: KSPPPPP
B3 yielded a Kd in test [4] greater than 75 µM.

B4: tau 6-mer peptide 158-163 (peptide)
peptide: PTPPTR
notes: tau, proline-rich domain, minimum consensus class II PRM; The methods tell acetylation and amination of the ends only for the 14-residue peptides; also called tau_(158-163); 6-mer tau peptide; source: synthetic peptide
In test [3], B4 returned an equilibrium dissociation constant (Kd) of 288 µM.

B5: tau 13-mer peptide 154-166 (peptide)
peptide: TPSLPTPPTREPK
notes: tau, proline-rich domain, class II PRM extended at both ends; The methods tell acetylation and amination of the ends only for the 14-residue peptides; also called tau_(154-166); 13-mer tau peptide; source: synthetic peptide
Consider B5, for which binding in test [3] was put at a Kd of 484 µM.

B6: p140Cap native class IIb 7-mer peptide (peptide)
peptide: PPPPPPR
For the molecule B6, in test [4], the dissociation constant (Kd) is greater than 75 µM.

B7: p140Cap 14-mer peptide 1033-1046 with alanine substitution of the N-terminal arginine (class IIb) (peptide)
chain: Ac-KPSKSPPPPPPARS-NH2
Take B7: the Kd in test [4] is greater than 75 µM.

B8: p140Cap 14-mer peptide 1033-1046 (peptide)
peptide: Ac-KPSKSPPPPPPRRS-NH2
notes: also called p140Cap_(1033-1046); native 14-mer peptide; source: synthetic peptide (GenScript, reversed-phase HPLC, ≥95% purity)
In test [3], B8 displayed a Kd of 7.7 µM.

A word on the Kd: it is the concentration at which binding is half-saturated.

(Values after PMC12510028, “A biophysical and molecular characterization of the interaction between the Alzheimer risk factor BIN1 and the neuronal scaffold protein p140Cap” (The Journal of Biological Chemistry, 2025).)
